± gives the standard deviation of the averaged measurements.
B1: library; a variant is named by its letters at N, in order (parent)
chain: GCUGUCACCGAGAAACUGUGAAGUAUAUCUUAAACCUGGGCACUUAAAAGAUAUAUGGAGUUAGUAGUGCAACCUGCUCGGUCUGAUGAGUCCNNNNNNGGACGAAACAGC

Assays:
cyclic di-GMP [1] = variants of: B1; assay: normalized RNA/DNA level without ligand (relative to sTRSVctl = 100) (log10 (% of sTRSVctl)); HEK293T; ligand: cyclic di-GMP (c-di-GMP-II aptamer); higher = less ribozyme self-cleavage, higher mRNA level; settings: reporter: mCherry (pCS4076), ligand present: no
Method in brief: (§1)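 Library plasmids carrying ribozyme switches linked to mCherry, or to eGFP in some ligand experiments, were transfected into HEK293T at 4 µg per 6-well well, with any ligand added 1 h earlier. Seventy-two hours on, total RNA was extracted with EDTA and reverse-transcribed, amplified, barcoded and sequenced. RNA level was RNA over DNA reads normalized to a spiked-in non-cleaving sequence or to the top sequences, then scaled and log-transformed. The top set was 25 sequences, the transform was ×100 and log10, and sequences needed ≥100 DNA reads.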

cyclic di-GMP [2] = variants of: B1; assay: normalized RNA/DNA level with ligand (relative to sTRSVctl = 100) (log10 (% of sTRSVctl)); HEK293T; ligand: cyclic di-GMP (c-di-GMP-II aptamer); ligand concentration (+) RNA-Seq: 1 mM; higher = less ribozyme self-cleavage, higher mRNA level; settings: reporter: mCherry (pCS4076), ligand present: yes
Method in brief: as §1

Variant	normalized RNA/DNA level without ligand (log10) (cyclic di-GMP [1])	normalized RNA/DNA level with ligand (log10) (cyclic di-GMP [2])
GCUGUCACCGAGAAACUGUGAAGUAUAUCUUAAACCUGGGCACUUAAAAGAUAUAUGGAGUUAGUAGUGCAACCUGCUCGGUCUGAUGAGUCCUCUCAAGGACGAAACAGC	1.659 ± 0.013	1.83 ± 0.12
GCUGUCACCGAGAAACUGUGAAGUAUAUCUUAAACCUGGGCACUUAAAAGAUAUAUGGAGUUAGUAGUGCAACCUGCUCGGUCUGAUGAGUCCGCAGUUGGACGAAACAGC	1.45 ± 0.082	1.65 ± 0.11
GCUGUCACCGAGAAACUGUGAAGUAUAUCUUAAACCUGGGCACUUAAAAGAUAUAUGGAGUUAGUAGUGCAACCUGCUCGGUCUGAUGAGUCCCGUCUGGGACGAAACAGC	1.727 ± 0.015	1.83 ± 0.064
GCUGUCACCGAGAAACUGUGAAGUAUAUCUUAAACCUGGGCACUUAAAAGAUAUAUGGAGUUAGUAGUGCAACCUGCUCGGUCUGAUGAGUCCUAAGAGGGACGAAACAGC	1.61 ± 0.017	1.74 ± 0.086
GCUGUCACCGAGAAACUGUGAAGUAUAUCUUAAACCUGGGCACUUAAAAGAUAUAUGGAGUUAGUAGUGCAACCUGCUCGGUCUGAUGAGUCCUAAUACGGACGAAACAGC	1.68 ± 0.013	1.81 ± 0.075
GCUGUCACCGAGAAACUGUGAAGUAUAUCUUAAACCUGGGCACUUAAAAGAUAUAUGGAGUUAGUAGUGCAACCUGCUCGGUCUGAUGAGUCCGUCUCCGGACGAAACAGC	1.82 ± 0.041	1.89 ± 0.15
GCUGUCACCGAGAAACUGUGAAGUAUAUCUUAAACCUGGGCACUUAAAAGAUAUAUGGAGUUAGUAGUGCAACCUGCUCGGUCUGAUGAGUCCCUAACGGGACGAAACAGC	1.77 ± 0.031	1.85 ± 0.15
GCUGUCACCGAGAAACUGUGAAGUAUAUCUUAAACCUGGGCACUUAAAAGAUAUAUGGAGUUAGUAGUGCAACCUGCUCGGUCUGAUGAGUCCACCGUCGGACGAAACAGC	1.73 ± 0.028	1.83 ± 0.11
GCUGUCACCGAGAAACUGUGAAGUAUAUCUUAAACCUGGGCACUUAAAAGAUAUAUGGAGUUAGUAGUGCAACCUGCUCGGUCUGAUGAGUCCAUCGCUGGACGAAACAGC	1.7 ± 0.023	1.81 ± 0.089
GCUGUCACCGAGAAACUGUGAAGUAUAUCUUAAACCUGGGCACUUAAAAGAUAUAUGGAGUUAGUAGUGCAACCUGCUCGGUCUGAUGAGUCCAAGUAAGGACGAAACAGC	1.45 ± 0.12	1.63 ± 0.089
GCUGUCACCGAGAAACUGUGAAGUAUAUCUUAAACCUGGGCACUUAAAAGAUAUAUGGAGUUAGUAGUGCAACCUGCUCGGUCUGAUGAGUCCGACCGCGGACGAAACAGC	1.81 ± 0.036	1.8 ± 0.083
GCUGUCACCGAGAAACUGUGAAGUAUAUCUUAAACCUGGGCACUUAAAAGAUAUAUGGAGUUAGUAGUGCAACCUGCUCGGUCUGAUGAGUCCGUGUAUGGACGAAACAGC	1.6 ± 0.018	1.78 ± 0.14
GCUGUCACCGAGAAACUGUGAAGUAUAUCUUAAACCUGGGCACUUAAAAGAUAUAUGGAGUUAGUAGUGCAACCUGCUCGGUCUGAUGAGUCCCCAAAGGGACGAAACAGC	1.41 ± 0.056	1.61 ± 0.1
GCUGUCACCGAGAAACUGUGAAGUAUAUCUUAAACCUGGGCACUUAAAAGAUAUAUGGAGUUAGUAGUGCAACCUGCUCGGUCUGAUGAGUCCAACUCAGGACGAAACAGC	1.65 ± 0.035	1.8 ± 0.088
GCUGUCACCGAGAAACUGUGAAGUAUAUCUUAAACCUGGGCACUUAAAAGAUAUAUGGAGUUAGUAGUGCAACCUGCUCGGUCUGAUGAGUCCUCGGUUGGACGAAACAGC	1.61 ± 0.093	1.79 ± 0.082
GCUGUCACCGAGAAACUGUGAAGUAUAUCUUAAACCUGGGCACUUAAAAGAUAUAUGGAGUUAGUAGUGCAACCUGCUCGGUCUGAUGAGUCCGUGCCUGGACGAAACAGC	1.81 ± 0.04	1.87 ± 0.1
GCUGUCACCGAGAAACUGUGAAGUAUAUCUUAAACCUGGGCACUUAAAAGAUAUAUGGAGUUAGUAGUGCAACCUGCUCGGUCUGAUGAGUCCCGAACUGGACGAAACAGC	1.48 ± 0.18	1.72 ± 0.042
GCUGUCACCGAGAAACUGUGAAGUAUAUCUUAAACCUGGGCACUUAAAAGAUAUAUGGAGUUAGUAGUGCAACCUGCUCGGUCUGAUGAGUCCGCGACUGGACGAAACAGC	1.57 ± 0.018	1.73 ± 0.089
GCUGUCACCGAGAAACUGUGAAGUAUAUCUUAAACCUGGGCACUUAAAAGAUAUAUGGAGUUAGUAGUGCAACCUGCUCGGUCUGAUGAGUCCAUUUGGGGACGAAACAGC	1.56 ± 0.032	1.77 ± 0.088
GCUGUCACCGAGAAACUGUGAAGUAUAUCUUAAACCUGGGCACUUAAAAGAUAUAUGGAGUUAGUAGUGCAACCUGCUCGGUCUGAUGAGUCCUACUCGGGACGAAACAGC	1.77 ± 0.06	1.88 ± 0.17
GCUGUCACCGAGAAACUGUGAAGUAUAUCUUAAACCUGGGCACUUAAAAGAUAUAUGGAGUUAGUAGUGCAACCUGCUCGGUCUGAUGAGUCCUUUAAGGGACGAAACAGC	1.72 ± 0.027	1.85 ± 0.11
GCUGUCACCGAGAAACUGUGAAGUAUAUCUUAAACCUGGGCACUUAAAAGAUAUAUGGAGUUAGUAGUGCAACCUGCUCGGUCUGAUGAGUCCACAGCAGGACGAAACAGC	1.66 ± 0.046	1.75 ± 0.095
GCUGUCACCGAGAAACUGUGAAGUAUAUCUUAAACCUGGGCACUUAAAAGAUAUAUGGAGUUAGUAGUGCAACCUGCUCGGUCUGAUGAGUCCUAAACCGGACGAAACAGC	1.77 ± 0.027	1.85 ± 0.076
GCUGUCACCGAGAAACUGUGAAGUAUAUCUUAAACCUGGGCACUUAAAAGAUAUAUGGAGUUAGUAGUGCAACCUGCUCGGUCUGAUGAGUCCGUACUUGGACGAAACAGC	1.7 ± 0.036	1.81 ± 0.15
GCUGUCACCGAGAAACUGUGAAGUAUAUCUUAAACCUGGGCACUUAAAAGAUAUAUGGAGUUAGUAGUGCAACCUGCUCGGUCUGAUGAGUCCUCUAUCGGACGAAACAGC	1.698 ± 0.013	1.84 ± 0.086
GCUGUCACCGAGAAACUGUGAAGUAUAUCUUAAACCUGGGCACUUAAAAGAUAUAUGGAGUUAGUAGUGCAACCUGCUCGGUCUGAUGAGUCCCAUGGGGGACGAAACAGC	1.682 ± 0.0032	1.84 ± 0.094
